Results: patent US20200040086A1 (BERLIN CHEMIE, published 2020)

Legend:
[1] = target: T1, LY75 tryptic peptide GWHFYDDR (765-772) (human); assay: peptide microarray of 8mer LY75 peptides (array peptide with the letters of m17), LY75_A1 at 1 µg/mL, anti-human IgG Alexa 647
T1 construct: Tryptic peptide of recombinant LY75 identified by mass spectrometry after pull down
T1 peptide: GWHFYDDR
Description: (§1) The peptide microarray analysis was performed by LC Sciences, Houston Tex., in brief the method comprised the following steps:—Contiguous 8mer peptides of LY75 protein having […] spanning residues 216 to 1666 of the full length LY75 protein were synthesized and immobilized on a microarray chip. The chip comprised three panels such that the experiment was performed in triplicate. The microarray was addressed with LY75_A1 to identify the peptides to which the antibody bound. The binding assay was performed under the following conditions:—
(§2) The microarray comprising the contiguous peptides in triplicate was washed with 1 mL of binding buffer at 4° C. for 20 min. It was then incubated with 1 μg/mL LY75_A1 in binding buffer (pH 7.0) at 4° C. for 2 hrs. The array was again washed with 0.5 mL of washing buffer at 4° C. for 30 min then incubated with 25 ng/mL anti-human IgG Alexa 647 conjugate in binding buffer (pH 7.0) at 4° C. for 1 hr. The array was again washed with 0.5 mL of washing buffer at 4° C. for 30 min.

[2] = target: Contiguous 8mer peptides of LY75 protein spanning residues 216 to 1666 of the full length LY75 protein; assay: peptide microarray, 1 ug/mL LY75_A1, anti-human IgG Alexa 647; the peptide is not named
PKTLTWHS = target: T2, PKTLTWHS; assay: peptide microarray of 8mer LY75 peptides
T2 construct: 8mer of LY75 on the peptide microarray, chart Region 7
T2 peptide: PKTLTWHS

NLYKIIPK = target: T3, NLYKIIPK; assay: peptide microarray of 8mer LY75 peptides
T3 construct: 8mer of LY75 on the peptide microarray, chart Region 7
T3 peptide: NLYKIIPK

KIIPKTLT = target: T4, KIIPKTLT; assay: peptide microarray of 8mer LY75 peptides
T4 construct: 8mer of LY75 on the peptide microarray, chart Region 7
T4 peptide: KIIPKTLT

KTLTWHSA = target: T5, KTLTWHSA; assay: peptide microarray of 8mer LY75 peptides
T5 construct: 8mer of LY75 on the peptide microarray, chart Region 7
T5 peptide: KTLTWHSA

IIPKTLTW = target: T6, IIPKTLTW; assay: peptide microarray of 8mer LY75 peptides
T6 construct: 8mer of LY75 on the peptide microarray, chart Region 7
T6 peptide: IIPKTLTW

[3] = target: T7, LY75 (DEC-205) on COLO205 cells (human, UniProt O60449 28-1722); assay: competitive FACS on COLO205 cells
T7 construct: also called Lymphocyte antigen 75
Description: COLO205 cells (ATCC, catalog # CCL-222) were detached from tissue culture flasks with Cell Stripper (Cellgro, catalog # MT-25-056CI). Cells were washed and resuspended in FACS buffer (PBS+2% FBS), neutralized with growth media, and counted. Cells were plated at 50,000 cells per well in a V Bottom 96-well plate. Cells were washed once with FACS buffer (PBS (Fisher, catalog # SH30028-03)+2% FBS). An anti-LY75-mAb (Selected from Example 1) or LY75_A1 was added to wells starting at 250 nM and diluted serially 3 fold and applied to the relevant wells for 45 minutes on ice. Test wells that required single or multiple staining steps were left in FACS buffer as appropriate to ensure the final staining was completed simultaneously for all conditions tested. Two wells were left unstained in FACS buffer as controls.
After the incubation with blocking antibody, cells were washed twice in FACS buffer. The cells were resuspended in FACS buffer containing the anti-LY75-mAb conjugated to MCC-DM1 (1 nM) and incubated on ice for 45 minutes. The cells were washed as above and resuspended in FACS buffer plus 1 ug/ml mouse anti-maytansine antibody and incubated in ice for 45 minutes. […] Mean fluorescence intensity of each sample was determined using a Guava EasyCyte Plus HT Flow Cytometer (96 well plate formats) and the raw data was analyzed using the Guava Cytosoft.

WIQYKGHC = target: T8, WIQYKGHC; assay: peptide microarray of 8mer LY75 peptides
T8 construct: 8mer of LY75 on the peptide microarray, chart Region 10
T8 peptide: WIQYKGHC

[4] = target: T9, LY75 Region 7 (aa1107-1118) (human); assay: peptide microarray; signal above the cut off of 3000
T9 construct: Region made up of overlapping 8mers on the array
T9 peptide: TVKYLNNLYKII

[5] = target: T10, LY75 Region 3 (aa761-780) (human); assay: as above
T10 construct: Region made up of overlapping 8mers on the array
T10 peptide: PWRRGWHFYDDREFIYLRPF

[6] = target: T11, LY75 Region 5 (aa1029-1040) (human); assay: as above
T11 construct: Region made up of overlapping 8mers on the array
T11 peptide: RELTYSNFHPLL

[7] = target: T12, LY75 Region 4 (aa883-901) (human); assay: as above
T12 construct: Region made up of overlapping 8mers on the array
T12 peptide: DDHFTYSRYPWHRFPVTFG

[8] = target: T13, LY75 Region 6 (aa1077-1093) (human); assay: as above
T13 construct: Region made up of overlapping 8mers on the array
T13 peptide: FTSCSERHFVSLCQKYS

[9] = target: Contiguous 8mer peptides of LY75 protein spanning residues 216 to 1666 of the full length LY75 protein; assay: peptide microarray, 1 ug/mL LY75_A1, anti-human IgG Alexa 647
EVKDCRSF = target: T14, EVKDCRSF; assay: peptide microarray of 8mer LY75 peptides, LY75_A1 at 1 µg/mL, anti-human IgG Alexa 647
T14 construct: 8mer of LY75 on the peptide microarray, chart Region 1
T14 peptide: EVKDCRSF
Description: as §1, §2

NGSRWIQY = target: T15, NGSRWIQY; assay: as above
T15 construct: 8mer of LY75 on the peptide microarray, chart Region 10
T15 peptide: NGSRWIQY
Description: as §1, §2

SLCQKYSE = target: T16, SLCQKYSE; assay: peptide microarray of 8mer LY75 peptides
T16 construct: 8mer of LY75 on the peptide microarray, chart Region 6
T16 peptide: SLCQKYSE

RHFVSLCQ = target: T17, RHFVSLCQ; assay: peptide microarray of 8mer LY75 peptides
T17 construct: 8mer of LY75 on the peptide microarray, chart Region 6
T17 peptide: RHFVSLCQ

QKYSEVKS = target: T18, QKYSEVKS; assay: peptide microarray of 8mer LY75 peptides
T18 construct: 8mer of LY75 on the peptide microarray, chart Region 6
T18 peptide: QKYSEVKS

LCQKYSEV = target: T19, LCQKYSEV; assay: peptide microarray of 8mer LY75 peptides
T19 construct: 8mer of LY75 on the peptide microarray, chart Region 6
T19 peptide: LCQKYSEV

CQKYSEVK = target: T20, CQKYSEVK; assay: peptide microarray of 8mer LY75 peptides
T20 construct: 8mer of LY75 on the peptide microarray, chart Region 6
T20 peptide: CQKYSEVK

T7 sequence (O60449 28-1722 limits assumed): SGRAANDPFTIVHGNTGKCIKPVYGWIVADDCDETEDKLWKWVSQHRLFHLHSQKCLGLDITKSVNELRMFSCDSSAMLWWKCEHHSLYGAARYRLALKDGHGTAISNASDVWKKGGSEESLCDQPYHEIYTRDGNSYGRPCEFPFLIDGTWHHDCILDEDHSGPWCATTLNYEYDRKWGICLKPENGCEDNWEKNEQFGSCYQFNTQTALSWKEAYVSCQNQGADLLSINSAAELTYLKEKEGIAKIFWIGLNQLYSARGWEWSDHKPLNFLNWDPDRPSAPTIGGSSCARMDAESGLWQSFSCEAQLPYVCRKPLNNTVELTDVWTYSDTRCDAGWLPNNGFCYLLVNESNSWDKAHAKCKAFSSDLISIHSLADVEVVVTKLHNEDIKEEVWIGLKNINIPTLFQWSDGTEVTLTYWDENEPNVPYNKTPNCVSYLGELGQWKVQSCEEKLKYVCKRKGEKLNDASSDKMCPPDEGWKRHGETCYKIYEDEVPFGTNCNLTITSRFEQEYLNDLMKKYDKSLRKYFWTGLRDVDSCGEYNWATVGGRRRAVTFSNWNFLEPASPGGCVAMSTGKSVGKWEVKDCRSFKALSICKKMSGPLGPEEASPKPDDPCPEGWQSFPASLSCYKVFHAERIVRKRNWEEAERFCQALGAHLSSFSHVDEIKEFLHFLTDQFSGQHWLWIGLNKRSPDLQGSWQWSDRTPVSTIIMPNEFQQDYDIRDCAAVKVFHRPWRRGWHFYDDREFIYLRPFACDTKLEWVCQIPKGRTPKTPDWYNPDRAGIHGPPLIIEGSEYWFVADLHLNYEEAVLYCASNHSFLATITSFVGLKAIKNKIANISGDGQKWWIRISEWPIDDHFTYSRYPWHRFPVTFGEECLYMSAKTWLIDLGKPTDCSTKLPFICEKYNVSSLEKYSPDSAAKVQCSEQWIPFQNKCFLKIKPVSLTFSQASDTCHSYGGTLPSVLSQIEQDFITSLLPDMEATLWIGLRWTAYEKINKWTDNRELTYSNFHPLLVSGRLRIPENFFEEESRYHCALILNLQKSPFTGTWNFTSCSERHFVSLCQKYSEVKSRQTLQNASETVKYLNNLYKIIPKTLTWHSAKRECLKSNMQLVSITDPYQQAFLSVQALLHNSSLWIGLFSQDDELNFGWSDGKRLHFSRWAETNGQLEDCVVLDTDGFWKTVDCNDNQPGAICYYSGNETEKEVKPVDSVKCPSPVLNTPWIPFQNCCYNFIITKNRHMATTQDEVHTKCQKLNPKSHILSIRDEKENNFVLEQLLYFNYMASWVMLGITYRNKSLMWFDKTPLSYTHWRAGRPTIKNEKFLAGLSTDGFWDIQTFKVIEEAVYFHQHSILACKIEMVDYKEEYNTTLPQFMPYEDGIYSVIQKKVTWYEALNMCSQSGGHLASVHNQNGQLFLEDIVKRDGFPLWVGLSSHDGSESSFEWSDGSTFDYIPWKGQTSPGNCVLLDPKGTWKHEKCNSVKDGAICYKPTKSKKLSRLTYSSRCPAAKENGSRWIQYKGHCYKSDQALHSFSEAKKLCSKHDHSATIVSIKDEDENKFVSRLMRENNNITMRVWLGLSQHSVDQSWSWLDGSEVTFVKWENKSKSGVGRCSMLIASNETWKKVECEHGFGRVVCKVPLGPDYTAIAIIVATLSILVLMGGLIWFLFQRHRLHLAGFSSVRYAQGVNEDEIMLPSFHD

B1: LY75_A1 (antibody, V domains shown)
VH: EVQLVESGGGLVKPGGSLRLSCAASGFTYSNAWMSWVRQAPGKGLEWVGRIKSKTDGGTTDYAAPVQGRFTISRDDSKNTLYLQMNSLKTEDTAVYYCTIFGVVSFDYWGQGTLVTVSS
VL: DVQMTQSPSSLSASVGDRVTITCRASQSISDYLSWYQQRPGKAPNLLIYAASNLKTGVPSRFSGSGSGTDFTLTISTLQPEDFATYYCQQSYRSPWTFGQGTKVEIKR
notes: detected with anti-human IgG in the microarray; also called antibody LY75_A1; LY75_A1 monoclonal antibody
Question: Does B1 bind [1]?
Answer: binds

Question: What about the maximum signal (signal intensity (scale 1-65535)) [2] of the same binder?
Answer: 25000

Question: Does B1 bind (PKTLTWHS)?
Answer: no binding (tested: 1 µg/mL)

Question: Does B1 bind (NLYKIIPK)?
Answer: no binding (tested: 1 µg/mL)

Question: Does B1 bind (KIIPKTLT)?
Answer: no binding (tested: 1 µg/mL)

Question: Does B1 bind (KTLTWHSA)?
Answer: no binding (tested: 1 µg/mL)

Question: Does B1 bind (IIPKTLTW)?
Answer: no binding (tested: 1 µg/mL)

Question: Does B1 bind [3]?
Answer: binds

Question: Does B1 bind (WIQYKGHC)?
Answer: no binding (tested: 1 µg/mL)

Question: Does B1 bind [4]?
Answer: binds

Question: Does B1 bind [5]?
Answer: binds

Question: Does B1 bind [6]?
Answer: binds

Question: Does B1 bind [7]?
Answer: binds

Question: Does B1 bind [8]?
Answer: binds

Question: And the average signal for all spots on the array (signal intensity (scale 1-65535)) [9]?
Answer: 885

Question: Does B1 bind (EVKDCRSF)?
Answer: binds

Question: Does B1 bind (NGSRWIQY)?
Answer: binds

Question: Does B1 bind (SLCQKYSE)?
Answer: no binding (tested: 1 µg/mL)

Question: Does B1 bind (RHFVSLCQ)?
Answer: no binding (tested: 1 µg/mL)

Question: Does B1 bind (QKYSEVKS)?
Answer: no binding (tested: 1 µg/mL)

Question: Does B1 bind (LCQKYSEV)?
Answer: no binding (tested: 1 µg/mL)

Question: Does B1 bind (CQKYSEVK)?
Answer: no binding (tested: 1 µg/mL)
